Laboratory results reported in patent US20240352134A1 (published 2024).

Key:
rat CCR8 = molecular target: T1, rat CCR8 (rat, UniProt D4ADE0 1-353); test: FACS binding, rat CCR8-293T cells
T1 chain: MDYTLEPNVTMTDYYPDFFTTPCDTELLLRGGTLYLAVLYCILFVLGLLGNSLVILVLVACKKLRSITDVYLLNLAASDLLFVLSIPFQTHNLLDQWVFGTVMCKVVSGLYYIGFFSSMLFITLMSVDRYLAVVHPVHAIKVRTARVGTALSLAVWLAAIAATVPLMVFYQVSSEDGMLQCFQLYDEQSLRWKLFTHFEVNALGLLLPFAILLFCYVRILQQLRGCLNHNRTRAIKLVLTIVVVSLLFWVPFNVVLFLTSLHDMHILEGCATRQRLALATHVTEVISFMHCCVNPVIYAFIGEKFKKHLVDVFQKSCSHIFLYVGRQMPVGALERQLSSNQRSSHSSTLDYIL

Dog CCR8 = Dog CCR8 (dog); test: FACS binding, dog CCR8-293T cells
cynomolgus CCR8 = molecular target: T2, cynomolgus CCR8 (cynomolgus, UniProt G7NYJ2 1-355); test: FACS binding, cyno CCR8-293T cells
T2 chain: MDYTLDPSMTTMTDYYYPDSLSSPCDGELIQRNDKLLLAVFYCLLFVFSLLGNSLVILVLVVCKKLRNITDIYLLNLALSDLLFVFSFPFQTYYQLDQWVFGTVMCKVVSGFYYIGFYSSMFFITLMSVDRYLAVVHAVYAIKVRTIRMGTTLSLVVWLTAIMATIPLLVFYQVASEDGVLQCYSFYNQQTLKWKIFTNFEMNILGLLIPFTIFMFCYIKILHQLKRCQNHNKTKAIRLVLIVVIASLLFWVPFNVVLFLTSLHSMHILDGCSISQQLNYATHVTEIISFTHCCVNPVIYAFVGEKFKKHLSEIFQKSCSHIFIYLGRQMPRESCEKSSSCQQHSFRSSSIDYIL

mouse CCR8 = molecular target: T3, mouse CCR8 (mouse, UniProt P56484 1-353); test: FACS binding, mouse CCR8-CHOK1 cells
T3 chain: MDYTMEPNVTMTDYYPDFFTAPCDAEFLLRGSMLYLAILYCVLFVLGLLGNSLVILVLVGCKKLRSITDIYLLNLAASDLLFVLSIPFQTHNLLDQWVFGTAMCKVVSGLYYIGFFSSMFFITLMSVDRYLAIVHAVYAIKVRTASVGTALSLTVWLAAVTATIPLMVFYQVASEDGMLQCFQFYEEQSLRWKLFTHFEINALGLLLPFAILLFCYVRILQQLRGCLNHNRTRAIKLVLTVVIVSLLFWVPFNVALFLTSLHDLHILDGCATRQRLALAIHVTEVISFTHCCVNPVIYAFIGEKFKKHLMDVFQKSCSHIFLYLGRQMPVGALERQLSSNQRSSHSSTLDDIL

B1: 3F11hz4 (antibody, V domains shown)
VH: EVQLVESGGGLVQPGGSLKLSCAASGFSFNTYAMNWVRQASGKGLEWVGRIRSKSNYYATYYAASVKGRFTISRDDSKSTLYLQMNSLKTEDTAVYYCVRGRELGDYYAMDYWGQGTLVTVSS
VL: DIVMTQSPLSLPVTPGEPASISCRSSKSLLHSNGNTYLYWFLQKPGQSPQLLIYRMSNLASGVPDRFSGSGSGTDFTLKISRVEAEDVGVYYCMQHLEYPFTFGQGTKLEIK
EC50 (rat CCR8): 3.2 nM
EC50 (Dog CCR8): 2 nM
EC50 (cynomolgus CCR8): 23.1 nM
EC50 (mouse CCR8): 0.79 nM
